Sequences and labels used below:
B1: HDV Ribozyme (parent)
chain: GGCCGGCAUGGUCCCAGCCUCCUCGCUGGCGCCGGCUGGGCAACAUUCCGAGGGGACCGUCCCCUCGGUAAUGGCGAAUGGGACCCA

In this series the parent is B1. Description: self-cleavage, relative activity (ratio to wild type); higher = more cleavage; co-transcriptional.
Consider C75U A83U, for which the self-cleavage worked out at 0.199. For C75U A83C, the self-cleavage was found to be 0.128.

Turning to A77U C84A, the self-cleavage is 0.291. On to A77U C84G, for which the self-cleavage is 0.403. With G81A A87C, the self-cleavage stood at 0.455. For the variant U79A A87C, the self-cleavage stood at 0.849.

As for U79A A87U, the self-cleavage is 0.98. As for C75U A87U, the self-cleavage is 0.185. With C75U A87C, the self-cleavage was 0.161. In the case of A78C G82A, the self-cleavage was 0.106.

Consider A78C G82U, for which the self-cleavage was 0.212.

As for C75G G82C, the self-cleavage came to 0.271. With A78G C86A the figure was 0.727.

Consider A78G C86U, for which the self-cleavage was 0.643. In the case of U79G A83G, the self-cleavage was 0.138. In the case of C75U C86A, the self-cleavage came out at 0.111. On to G76A U79A, for which the self-cleavage stood at 0.831.

Consider G76U C85U, for which the self-cleavage came out at 1.24. Regarding G76U C85A, the self-cleavage was 1.05. Regarding G76U C85G, the self-cleavage turned out to be 1.16.

A78U A87G: the self-cleavage is 0.226. Regarding A78U A87C, the self-cleavage is 0.31. Take A77U C86G: the self-cleavage was 0.623. With A77U A78U, the self-cleavage is 0.259. With G76A A78G the figure was 0.816. For G76A A78U, the self-cleavage worked out at 0.673. For the variant G76A A78C, the self-cleavage is 0.242.

For A77U G82U, the self-cleavage is 0.0811. In the case of A77U G82A, the self-cleavage turned out to be 0.271.

For A78G A83G, the self-cleavage stood at 0.445. Regarding A78G A83U, the self-cleavage amounted to 0.0437. With G74C G76A the figure was 0.208; with G74C G76C, 0.185. As to G74C G76U, the self-cleavage was 0.175.

For the variant G76C A83C, the self-cleavage worked out at 0.201. For the variant C75A C84G, the self-cleavage was 0.0707. With C75G A87G, the self-cleavage was 0.108. For the variant C75G A87U, the self-cleavage is 0.143. For C75G A78G, the self-cleavage came out at 0.222. For C75G A78U, the self-cleavage came out at 0.0462. On to C75G A78C, for which the self-cleavage is 0.151. In the case of G74A U79G, the self-cleavage came out at 0.356. For A77C G82U, the self-cleavage worked out at 0.0755. With A77C A87C the figure was 0.391; with G80U A83U, 0.181. On to G74C A78G, for which the self-cleavage is 0.113. In the case of C75G C85G, the self-cleavage was 0.0923. For C75G C85A, the self-cleavage worked out at 0.208. With G74C A87C the figure was 0.212; with G74C A87G, 0.291.

As to G74C A77C, the self-cleavage was 0.133. Turning to G76C A87C, the self-cleavage was 1.08. With A78C C84G the figure was 0.11; with A78C C84A, 0.156; with A78C C84U, 0.196. G74U U79C: the self-cleavage is 0.0963. For the variant G74U A78G, the self-cleavage was 0.185.

For G74C U79A, the self-cleavage is 0.189.

On to G74C U79C, for which the self-cleavage was 0.181. To G74C U79G belongs 0.302. With G80A G82A, the self-cleavage was 0.244. With G80A G82C the figure was 0.0978. Take G76C G80A: the self-cleavage amounted to 0.394. To G76C G80C belongs 0.093.

C75G A83U: the self-cleavage was determined as 0.201. As for C75G A83C, the self-cleavage is 0.489. In the case of U79A A83G, the self-cleavage was determined as 0.375. Regarding U79G C84G, the self-cleavage stood at 0.185. For the variant U79G C84A, the self-cleavage turned out to be 0.38. In the case of G74A G80U, the self-cleavage worked out at 0.124. With G74A G80C, the self-cleavage is 0.167. In the case of A77C C85U, the self-cleavage amounted to 0.192. G76C C86A: the self-cleavage is 0.854.

Take G76C C86G: the self-cleavage was 0.971. G80A: the self-cleavage is 0.348. For G80U, the self-cleavage amounted to 0.223. On to G80C, for which the self-cleavage was determined as 0.187.

As for G81C A87U, the self-cleavage was determined as 0.265. To G81C A87C belongs 0.269; to G81C A87G, 0.306; to C75G G81C, 0.0831. For the variant G74U G82C, the self-cleavage amounted to 0.0723. Turning to G74U G82U, the self-cleavage was determined as 0.281. For U79A C84U, the self-cleavage came out at 0.314. On to U79A C84A, for which the self-cleavage amounted to 0.539. As to G76A G80C, the self-cleavage came out at 0.0719. Take G76A G80A: the self-cleavage was 0.585. G76A G80U: the self-cleavage was 0.441. To G76A C85G belongs 0.962; to G76A C85A, 0.904.

With U79C G81A, the self-cleavage came out at 0.208. Consider U79C G81C, for which the self-cleavage was 0.189. To U79C G81U belongs 0.225. To U79A C85U belongs 0.855. For G76U A77C, the self-cleavage was 0.295. As to C75U G76A, the self-cleavage stood at 0.0852. Regarding C75U G76C, the self-cleavage amounted to 0.271.

For G76U A78C, the self-cleavage came out at 0.219. For the variant G76U A78U, the self-cleavage was 0.475. With G81A G82U, the self-cleavage amounted to 0.225. To G81A G82A belongs 0.201; to G81A G82C, 0.163; to G80C A83G, 0.102. For G76U C84A, the self-cleavage is 0.906. With G76U C84U, the self-cleavage was determined as 1.11. In the case of G76U C84G, the self-cleavage amounted to 1.05. For the variant U79G C85G, the self-cleavage came out at 0.575. As to U79G C85U, the self-cleavage came out at 0.705. For G80A C86U, the self-cleavage stood at 0.409. With G80A C86A, the self-cleavage is 0.532. As for C75A G80U, the self-cleavage amounted to 0.118. With C75A G80C the figure was 0.18; with C75A G80A, 0.12; with C75A C86G, 0.0997. With G80C A87G the figure was 0.211; with G80C A87C, 0.237; with G81U A83C, 0.0821. Turning to G80U G82A, the self-cleavage was 0.0297. With G80U G82U the figure was 0.147; with G81U C84G, 0.0923; with G74U A77G, 0.312. To C75A A83U belongs 0.151; to C75A A83C, 0.181. Regarding C75A A83G, the self-cleavage was found to be 0.0567. On to G76U G81U, for which the self-cleavage was 0.462. As to G76U G81C, the self-cleavage was determined as 0.628.

As for G74A G81C, the self-cleavage worked out at 0.218. With G76A C86G, the self-cleavage was 1.08. Regarding G74U C84A, the self-cleavage was determined as 0.475.

Take A77C G80U: the self-cleavage is 0.219. On to G76C A77C, for which the self-cleavage was 0.104. With U79G G82A the figure was 0.0875. Take U79G G82U: the self-cleavage came out at 0.271.

With U79C G82A, the self-cleavage was found to be 0.133. As to C75A A77U, the self-cleavage came to 0.119. With C75A A77C the figure was 0.237. Turning to G74C C84A, the self-cleavage was 0.177. As to G81C C84G, the self-cleavage is 0.256.

For the variant G81C C84U, the self-cleavage stood at 0.141. Turning to G76A A87G, the self-cleavage was found to be 1.01. As to C75G U79A, the self-cleavage was determined as 0.123. As to C75G U79G, the self-cleavage was 0.0791. With A78U C86G the figure was 0.163; with A78U C86A, 0.208. For A78U C86U, the self-cleavage was 0.309. A78G C84U: the self-cleavage was found to be 0.53. Consider A78G C84A, for which the self-cleavage amounted to 0.571. To A77G A87U belongs 0.851; to A77C U79A, 0.297. Take A77C U79G: the self-cleavage was 0.151. With A77C U79C the figure was 0.138; with U79C A87C, 0.35. With U79C A87U the figure was 0.373; with U79C A87G, 0.47; with G80A G81C, 0.106. Consider G80A G81U, for which the self-cleavage was found to be 0.0936. As to U79G G81A, the self-cleavage worked out at 0.146. With U79G G81U, the self-cleavage turned out to be 0.225. On to G81A A83G, for which the self-cleavage came to 0.236. With G76U G80U, the self-cleavage was determined as 0.407. For G76U G80A, the self-cleavage was 0.595. To G76U G80C belongs 0.204; to G76U U79C, 0.782; to G76U U79G, 0.91. With G80C C85U the figure was 0.194. In the case of G80C C85A, the self-cleavage worked out at 0.117.

As to G81A C84A, the self-cleavage amounted to 0.339.

(Values after the RNAGym collection of RNA variant scans (doi:10.7554/elife.80360).)
